The source of these data is the supplement of paper PMC10065799, “High-throughput profiling of sequence recognition by tyrosine kinases and SH2 domains using bacterial peptide display” (eLife, 2023).

One data set concerns the target Jak2 (UniProt O60674). The experiment in a line: phosphorylation enrichment, bacterial display (enrichment ratio); higher = better substrate or ligand; peptides without Tyr show the background.
Another data set has as its target Fyn (UniProt P06241). The description is as above.
For the next data set, the system named is c-Src. Described as above.
In a further data set the target is MERTK (UniProt Q12866). The description is as above.
MERTK, sequence (Q12866 whole entry, looked up): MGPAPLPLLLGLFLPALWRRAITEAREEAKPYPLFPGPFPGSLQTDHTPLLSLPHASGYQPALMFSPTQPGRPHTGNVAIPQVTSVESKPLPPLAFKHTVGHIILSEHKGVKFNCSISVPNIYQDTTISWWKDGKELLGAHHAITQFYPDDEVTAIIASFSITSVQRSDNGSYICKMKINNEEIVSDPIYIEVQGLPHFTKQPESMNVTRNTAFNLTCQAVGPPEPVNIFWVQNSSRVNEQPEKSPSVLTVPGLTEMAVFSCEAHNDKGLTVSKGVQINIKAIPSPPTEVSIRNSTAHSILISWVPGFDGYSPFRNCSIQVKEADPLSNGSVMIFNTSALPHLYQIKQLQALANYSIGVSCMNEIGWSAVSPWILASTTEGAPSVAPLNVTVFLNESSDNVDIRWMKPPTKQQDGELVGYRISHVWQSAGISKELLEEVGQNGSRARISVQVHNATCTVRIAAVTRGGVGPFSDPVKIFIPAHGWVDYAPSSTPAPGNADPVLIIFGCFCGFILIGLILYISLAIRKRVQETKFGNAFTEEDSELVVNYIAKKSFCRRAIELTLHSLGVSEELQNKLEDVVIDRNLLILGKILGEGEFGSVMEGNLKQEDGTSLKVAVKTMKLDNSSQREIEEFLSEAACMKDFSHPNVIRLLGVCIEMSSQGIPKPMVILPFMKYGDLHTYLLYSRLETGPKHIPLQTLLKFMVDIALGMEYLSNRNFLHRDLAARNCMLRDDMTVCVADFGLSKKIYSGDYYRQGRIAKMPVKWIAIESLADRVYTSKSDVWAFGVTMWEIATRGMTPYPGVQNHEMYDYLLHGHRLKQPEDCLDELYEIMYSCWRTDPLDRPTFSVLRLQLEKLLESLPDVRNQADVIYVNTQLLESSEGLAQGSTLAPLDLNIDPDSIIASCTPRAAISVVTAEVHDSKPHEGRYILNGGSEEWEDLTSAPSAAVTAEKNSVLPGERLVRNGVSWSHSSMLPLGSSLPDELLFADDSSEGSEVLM
A further data set concerns the target Fes (UniProt P07332). The description is as above.
Another data set has as its target EPHB1 (UniProt P54762). The description is as above.
A further data set concerns Fer (mouse). Described as above.
A further data set concerns the target FGFR1 (UniProt P11362). The data set is described as above.
A further data set addresses FGFR3 (UniProt P22607). The description is as above.
The subject of the next data set is c-Abl (mouse). Described as above.
The next data set concerns AncSZ. The data set is described as above.
Another data set concerns the target Hck (UniProt P08631). The description is as above.
A further data set concerns the target EPHB2 (UniProt P29323). The data set is described as above.
Another data set concerns the target Grb2 SH2 (UniProt P62993). The experiment in a line: SH2 binding enrichment of the phosphorylated peptide, bacterial display (enrichment ratio); higher = better substrate or ligand; peptides without Tyr show the background.
The target of another data set is SHP2-C SH2. The description is as above.
The next data set deals with c-Src SH2. Described as above.
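For SH2 binding enrichment of the phosphorylated peptide, bacterial display in this document: peptide library displayed on the E. coli surface as eCPX fusions, selected cells deep-sequenced, score is each peptide's frequency after selection divided by its frequency in the input.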
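For phosphorylation enrichment, bacterial display in this document: 11-residue human phosphosite peptides and single-mutation variants displayed on the E. coli surface, counted by deep sequencing, each peptide's frequency after selection divided by its frequency in the unselected input library; frequency after pTyr selection over input frequency; kinase dosed for 20-30% of maximal phosphorylation in three min.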

Jak2, sequence (O60674 whole entry, looked up): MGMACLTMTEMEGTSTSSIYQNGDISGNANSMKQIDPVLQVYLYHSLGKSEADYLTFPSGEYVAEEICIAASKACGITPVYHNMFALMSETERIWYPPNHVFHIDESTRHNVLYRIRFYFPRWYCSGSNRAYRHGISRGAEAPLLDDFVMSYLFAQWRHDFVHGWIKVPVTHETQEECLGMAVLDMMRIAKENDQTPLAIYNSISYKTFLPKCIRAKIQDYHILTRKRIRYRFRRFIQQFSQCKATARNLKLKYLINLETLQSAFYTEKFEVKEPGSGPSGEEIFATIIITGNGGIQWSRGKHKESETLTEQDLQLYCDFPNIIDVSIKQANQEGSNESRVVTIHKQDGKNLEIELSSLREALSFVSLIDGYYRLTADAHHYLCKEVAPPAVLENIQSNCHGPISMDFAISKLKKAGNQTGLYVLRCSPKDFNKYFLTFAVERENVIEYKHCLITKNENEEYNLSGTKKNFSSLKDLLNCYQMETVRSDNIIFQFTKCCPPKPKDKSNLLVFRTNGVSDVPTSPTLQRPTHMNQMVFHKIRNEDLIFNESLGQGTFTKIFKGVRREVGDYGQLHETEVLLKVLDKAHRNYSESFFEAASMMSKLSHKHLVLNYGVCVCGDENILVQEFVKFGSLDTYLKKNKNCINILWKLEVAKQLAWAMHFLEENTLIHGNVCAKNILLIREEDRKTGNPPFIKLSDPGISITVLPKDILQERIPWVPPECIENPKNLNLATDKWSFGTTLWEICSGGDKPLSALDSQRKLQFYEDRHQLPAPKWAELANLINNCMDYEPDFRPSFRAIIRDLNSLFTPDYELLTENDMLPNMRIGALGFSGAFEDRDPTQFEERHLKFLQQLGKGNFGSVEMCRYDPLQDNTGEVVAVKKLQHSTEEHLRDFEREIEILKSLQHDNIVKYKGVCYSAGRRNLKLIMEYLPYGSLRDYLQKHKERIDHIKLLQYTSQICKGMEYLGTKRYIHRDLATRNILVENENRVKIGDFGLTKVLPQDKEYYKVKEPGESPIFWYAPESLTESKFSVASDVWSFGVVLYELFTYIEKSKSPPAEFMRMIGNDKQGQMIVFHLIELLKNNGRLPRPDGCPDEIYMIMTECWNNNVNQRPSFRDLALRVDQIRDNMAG
Fyn, sequence (P06241 whole entry, looked up): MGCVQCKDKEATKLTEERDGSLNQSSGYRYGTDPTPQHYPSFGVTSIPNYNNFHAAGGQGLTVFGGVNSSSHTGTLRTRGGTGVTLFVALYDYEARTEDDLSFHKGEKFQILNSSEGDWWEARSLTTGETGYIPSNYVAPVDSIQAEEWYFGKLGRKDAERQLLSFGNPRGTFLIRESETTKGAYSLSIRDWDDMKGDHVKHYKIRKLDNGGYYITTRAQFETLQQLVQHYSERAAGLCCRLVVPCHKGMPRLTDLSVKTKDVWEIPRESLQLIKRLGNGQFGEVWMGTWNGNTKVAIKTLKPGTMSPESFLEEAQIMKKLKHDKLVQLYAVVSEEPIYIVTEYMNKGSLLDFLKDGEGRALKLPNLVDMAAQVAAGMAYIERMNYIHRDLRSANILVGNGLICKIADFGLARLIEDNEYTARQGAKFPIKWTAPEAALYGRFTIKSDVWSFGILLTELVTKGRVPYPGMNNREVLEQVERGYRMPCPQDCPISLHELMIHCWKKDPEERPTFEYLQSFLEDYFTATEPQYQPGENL
FGFR3, sequence (P22607 whole entry, looked up): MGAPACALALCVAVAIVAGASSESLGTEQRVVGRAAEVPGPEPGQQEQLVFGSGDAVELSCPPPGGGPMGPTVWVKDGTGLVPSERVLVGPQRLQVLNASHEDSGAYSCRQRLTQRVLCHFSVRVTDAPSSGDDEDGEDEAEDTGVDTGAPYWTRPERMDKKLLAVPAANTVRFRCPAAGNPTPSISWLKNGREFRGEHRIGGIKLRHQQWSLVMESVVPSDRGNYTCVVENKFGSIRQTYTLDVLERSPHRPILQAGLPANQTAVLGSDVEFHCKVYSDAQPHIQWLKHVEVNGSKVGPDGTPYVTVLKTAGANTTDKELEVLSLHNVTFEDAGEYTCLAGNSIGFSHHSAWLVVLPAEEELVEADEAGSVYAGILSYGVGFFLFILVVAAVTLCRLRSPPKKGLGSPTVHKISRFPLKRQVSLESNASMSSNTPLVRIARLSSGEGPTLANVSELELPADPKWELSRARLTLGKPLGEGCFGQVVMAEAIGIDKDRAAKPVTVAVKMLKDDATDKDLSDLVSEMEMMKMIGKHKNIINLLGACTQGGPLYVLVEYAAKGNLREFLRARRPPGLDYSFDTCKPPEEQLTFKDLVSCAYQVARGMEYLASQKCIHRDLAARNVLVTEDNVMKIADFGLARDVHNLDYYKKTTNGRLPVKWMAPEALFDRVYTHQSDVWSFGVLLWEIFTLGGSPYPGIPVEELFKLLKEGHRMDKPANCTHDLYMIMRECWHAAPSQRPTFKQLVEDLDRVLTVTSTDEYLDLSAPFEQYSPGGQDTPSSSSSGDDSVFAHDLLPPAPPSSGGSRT
FGFR1, sequence (P11362 whole entry, looked up): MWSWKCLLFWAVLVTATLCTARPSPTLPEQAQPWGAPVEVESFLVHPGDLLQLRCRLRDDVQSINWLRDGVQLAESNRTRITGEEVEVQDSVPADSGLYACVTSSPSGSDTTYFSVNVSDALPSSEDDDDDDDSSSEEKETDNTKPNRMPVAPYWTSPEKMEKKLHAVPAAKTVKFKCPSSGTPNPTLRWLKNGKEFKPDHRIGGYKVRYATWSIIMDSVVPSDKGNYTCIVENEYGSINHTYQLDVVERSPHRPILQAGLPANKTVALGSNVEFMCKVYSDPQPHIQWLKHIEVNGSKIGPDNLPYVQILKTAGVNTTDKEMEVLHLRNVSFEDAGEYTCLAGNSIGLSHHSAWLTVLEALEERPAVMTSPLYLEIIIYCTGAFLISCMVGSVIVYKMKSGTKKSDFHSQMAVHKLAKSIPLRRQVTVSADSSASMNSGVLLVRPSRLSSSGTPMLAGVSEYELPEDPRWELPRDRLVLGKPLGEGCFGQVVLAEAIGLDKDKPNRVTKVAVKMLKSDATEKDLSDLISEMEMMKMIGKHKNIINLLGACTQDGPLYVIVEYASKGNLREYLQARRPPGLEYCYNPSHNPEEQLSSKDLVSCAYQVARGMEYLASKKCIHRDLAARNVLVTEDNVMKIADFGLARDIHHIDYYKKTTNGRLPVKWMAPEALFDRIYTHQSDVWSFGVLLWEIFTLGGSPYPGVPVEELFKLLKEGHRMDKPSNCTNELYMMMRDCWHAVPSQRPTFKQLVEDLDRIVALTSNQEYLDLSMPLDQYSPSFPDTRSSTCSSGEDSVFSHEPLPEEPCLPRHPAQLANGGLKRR
Grb2 SH2, sequence (P62993 whole entry, looked up): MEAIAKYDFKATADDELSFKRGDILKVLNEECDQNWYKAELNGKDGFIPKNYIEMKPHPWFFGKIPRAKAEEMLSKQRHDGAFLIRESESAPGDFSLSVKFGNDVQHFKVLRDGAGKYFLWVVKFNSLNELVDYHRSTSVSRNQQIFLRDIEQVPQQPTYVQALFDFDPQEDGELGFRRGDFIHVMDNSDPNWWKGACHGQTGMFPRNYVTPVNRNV
Hck, sequence (P08631 whole entry, looked up): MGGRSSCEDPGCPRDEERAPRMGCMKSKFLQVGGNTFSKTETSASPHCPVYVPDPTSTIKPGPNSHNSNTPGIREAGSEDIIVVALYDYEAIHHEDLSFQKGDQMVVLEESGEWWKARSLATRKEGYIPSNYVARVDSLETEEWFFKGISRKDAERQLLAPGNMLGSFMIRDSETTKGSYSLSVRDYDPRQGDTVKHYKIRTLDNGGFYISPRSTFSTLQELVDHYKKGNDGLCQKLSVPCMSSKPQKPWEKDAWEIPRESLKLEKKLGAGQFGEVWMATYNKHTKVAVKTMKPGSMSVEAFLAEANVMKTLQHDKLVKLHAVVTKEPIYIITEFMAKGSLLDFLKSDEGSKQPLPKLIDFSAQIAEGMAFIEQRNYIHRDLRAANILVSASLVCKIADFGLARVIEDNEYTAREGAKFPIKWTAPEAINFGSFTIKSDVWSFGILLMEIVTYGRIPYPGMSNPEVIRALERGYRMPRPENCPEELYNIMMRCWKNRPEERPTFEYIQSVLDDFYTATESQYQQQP

As for PGAPAYRVLME [MYO5A_Y1245], the phosphorylation enrichment stood at 1.06 with Jak2; 0.542 with Fyn; 0.423 in the data set with c-Src; 0.566 with MERTK; 1.29 with Fes; 0.397 with EPHB1. For the same sequence, the phosphorylation enrichment in the data set with Fer (mouse) came out at 0.671; in the data set with FGFR1, 0.379; with FGFR3, 0.726; in the data set on c-Abl (mouse) it was 1.52; in the data set on AncSZ, 0.592; in the data set with Hck, 0.564. In the data set with EPHB2, the phosphorylation enrichment is 0.585. Further, the SH2 binding enrichment with Grb2 SH2 stood at 0.728; with SHP2-C SH2, 0.71; with c-Src SH2 it was 0.422.

Turning to AYGNLYGSRKQ [YIPF7_Y59], the phosphorylation enrichment turned out to be 0.516 with Jak2; 1.38 with Fyn; 2.08 with c-Src; 0.502 with MERTK; 0.462 with Fes; 0.324 with EPHB1. Also, the phosphorylation enrichment turned out to be 0.367 in the data set with Fer (mouse); 0.484 with FGFR1; 0.481 with FGFR3; 0.442 in the data set with c-Abl (mouse); 0.525 with AncSZ; 6.04 with Hck. Besides, the phosphorylation enrichment with EPHB2 worked out at 0.3. Moreover, the SH2 binding enrichment with Grb2 SH2 worked out at 0.748; in the data set with SHP2-C SH2, 0.584; with c-Src SH2, 0.593.

As for VTGWGYRKLRE [F11_Y521_D526E], the phosphorylation enrichment was 0.579 with Jak2; 0.495 with Fyn; 0.578 in the data set on c-Src; 0.546 with MERTK; 0.763 with Fes; 0.415 with EPHB1. Also, the phosphorylation enrichment in the data set on Fer (mouse) came out at 0.508; in the data set with FGFR1, 0.476; with FGFR3, 0.631; in the data set with c-Abl (mouse), 0.588; in the data set with AncSZ, 0.907; with Hck, 0.407. In addition, in the data set with EPHB2, the phosphorylation enrichment came to 0.455. Also, the SH2 binding enrichment in the data set with Grb2 SH2 was 0.63; with SHP2-C SH2, 0.375; with c-Src SH2, 0.584.

For the sequence KVGNGYISAAE [CALM2_Y100_D96V], the phosphorylation enrichment in the data set with Jak2 turned out to be 0.485; in the data set with Fyn it was 0.337; with c-Src it was 0.391; in the data set with MERTK, 0.42; with Fes, 0.65; in the data set with EPHB1, 0.4. Besides, the phosphorylation enrichment with Fer (mouse) is 0.476; in the data set with FGFR1 it was 0.456; with FGFR3, 0.588; in the data set on c-Abl (mouse), 0.538; in the data set with AncSZ it was 0.619; in the data set with Hck, 0.393. In addition, the phosphorylation enrichment with EPHB2 was determined as 0.468. The SH2 binding enrichment with Grb2 SH2 was determined as 0.892; with SHP2-C SH2, 0.546; with c-Src SH2 it was 0.53.

On to MTEEQYIKMNR [ARFGEF2_Y797_K794E], for which the phosphorylation enrichment with Jak2 was 1.02; with Fyn, 0.451; in the data set with c-Src it was 0.441; in the data set with MERTK it was 0.386; with Fes, 1.09; with EPHB1 it was 0.478. The phosphorylation enrichment stood at 0.524 in the data set on Fer (mouse); 0.558 in the data set with FGFR1; 0.638 in the data set with FGFR3; 0.612 in the data set with c-Abl (mouse); 0.941 in the data set with AncSZ; 0.493 in the data set with Hck. The phosphorylation enrichment with EPHB2 was determined as 0.502. For the same sequence, the SH2 binding enrichment in the data set with Grb2 SH2 is 0.674; with SHP2-C SH2, 0.435; with c-Src SH2, 0.376.

Regarding LDFNEYFRGLN [HPRT1_Y198_D201G_YF], the phosphorylation enrichment with Jak2 is 1.92; with Fyn, 0.746; in the data set with c-Src it was 0.595; with MERTK it was 0.714; with Fes, 1.45; in the data set with EPHB1 it was 0.832. Besides, the phosphorylation enrichment in the data set with Fer (mouse) was 0.62; with FGFR1 it was 0.788; with FGFR3 it was 0.933; with c-Abl (mouse) it was 0.799; in the data set on AncSZ, 1.29; in the data set with Hck, 0.873. In the data set with EPHB2, the phosphorylation enrichment was found to be 1.41. In addition, the figures for the SH2 binding enrichment in the data set with Grb2 SH2, in the data set with SHP2-C SH2 and with c-Src SH2 were 1.17, 1.08 and 0.862, respectively.

For GTSLIYWTLFT [G6PC3_Y214], the phosphorylation enrichment with Jak2 stood at 3; with Fyn it was 8.42; in the data set with c-Src, 6.99; with MERTK, 5.81; with Fes it was 1.97; with EPHB1, 3.96. In addition, the phosphorylation enrichment is 1.68 in the data set on Fer (mouse); 5.01 in the data set with FGFR1; 4.45 with FGFR3; 11.2 in the data set with c-Abl (mouse); 1.82 in the data set on AncSZ; 6.02 with Hck. In addition, the phosphorylation enrichment in the data set with EPHB2 worked out at 2.09. Also, the SH2 binding enrichment stood at 0.746 with Grb2 SH2, 0.652 with SHP2-C SH2 and 0.457 in the data set with c-Src SH2.

Consider NDLMEYAKQHG [ASS1_Y163], for which the phosphorylation enrichment with Jak2 was determined as 0.856; with Fyn it was 0.457; with c-Src it was 0.437; in the data set with MERTK, 0.426; with Fes it was 0.896; with EPHB1, 0.48. Further, the phosphorylation enrichment in the data set on Fer (mouse) came to 0.541; with FGFR1, 0.487; with FGFR3 it was 0.563; in the data set with c-Abl (mouse), 0.75; in the data set with AncSZ, 0.852; in the data set with Hck, 0.502. For the same sequence, the phosphorylation enrichment in the data set with EPHB2 was 0.471. Further, the figures for the SH2 binding enrichment in the data set with Grb2 SH2, in the data set with SHP2-C SH2 and with c-Src SH2 were 0.724, 0.621 and 0.381, respectively.

With HNVPIYEGFGL [ACTA1_Y168_A172G_YF], the phosphorylation enrichment in the data set with Jak2 was 0.575; with Fyn, 14.9; in the data set on c-Src it was 8.62; with MERTK it was 12.1; with Fes, 4.3; in the data set with EPHB1, 24.2. In addition, the phosphorylation enrichment came out at 18.8 in the data set with Fer (mouse); 0.507 with FGFR1; 0.519 with FGFR3; 7.97 in the data set with c-Abl (mouse); 1.35 in the data set on AncSZ; 13.5 with Hck. Further, in the data set with EPHB2, the phosphorylation enrichment worked out at 27.6. In addition, the SH2 binding enrichment with Grb2 SH2 was 0.85; with SHP2-C SH2 it was 0.823; in the data set with c-Src SH2, 0.513.
